# Laboratory results taken from patent US20080166370A1, “Immunogenic Compositions Comprising Multiple Gonococcal Antigens” (CHIRON SRL, priority 2003, published 2008).
# T1: C4b binding protein (C4bp) (Homo sapiens, UniProt P04003)
# T1 construct: incubated with 10% NHS as source of C4bp; from tissue; host or cells: 10% NHS (serum)
# T1 sequence (P04003 49-597): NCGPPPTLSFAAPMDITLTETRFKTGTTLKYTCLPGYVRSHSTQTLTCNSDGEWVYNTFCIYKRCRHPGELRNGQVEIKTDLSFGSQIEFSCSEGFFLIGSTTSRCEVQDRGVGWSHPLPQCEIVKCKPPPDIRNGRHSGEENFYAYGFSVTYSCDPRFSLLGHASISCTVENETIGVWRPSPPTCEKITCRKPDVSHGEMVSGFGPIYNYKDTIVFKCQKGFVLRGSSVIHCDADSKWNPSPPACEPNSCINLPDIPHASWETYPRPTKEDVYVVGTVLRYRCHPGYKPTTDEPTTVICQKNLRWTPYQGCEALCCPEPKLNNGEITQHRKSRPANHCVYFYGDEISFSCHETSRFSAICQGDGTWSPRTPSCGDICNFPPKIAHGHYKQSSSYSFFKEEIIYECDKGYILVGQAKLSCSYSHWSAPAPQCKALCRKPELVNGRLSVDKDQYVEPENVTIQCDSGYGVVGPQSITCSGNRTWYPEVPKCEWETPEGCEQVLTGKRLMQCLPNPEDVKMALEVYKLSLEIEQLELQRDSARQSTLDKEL
# T1 sequence (P20851 18-252 partner): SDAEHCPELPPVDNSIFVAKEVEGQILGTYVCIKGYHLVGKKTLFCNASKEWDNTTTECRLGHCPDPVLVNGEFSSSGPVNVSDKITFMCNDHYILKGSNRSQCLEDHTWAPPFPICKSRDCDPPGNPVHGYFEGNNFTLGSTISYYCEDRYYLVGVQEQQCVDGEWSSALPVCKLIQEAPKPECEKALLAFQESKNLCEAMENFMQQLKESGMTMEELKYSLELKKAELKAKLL
# T2: C4b binding protein (C4bp) (Homo sapiens, UniProt P04003)
# T2 sequence (P04003 49-597): T1 sequence (P04003 49-597)
# B1: App: gonococcal App autotransporter protein, SEQ ID 7, related to meningococcal adhesion penetration protein (protein, listed as Neisseria gonorrhoeae)
# chain: MKTTDKRTTETHRKAPKTGRIRFSPAYLAICLSFGILPQARAGHTYFGINYQYYRDFAENKGKFAVGAKDIEVYNKKGELVGKSMTKAPMIDFSVVSRNGVAALAGDQYIVSVAHNGGYNNVDFGAEGSNPDQHRFSYQIVKRNNYKAGTNGHPYGGDYHMPRLHKFVTDAEPVEMTSYMDGWKYADLNKYPDRVRIGAGRQYWRSDEDEPNNRESSYHIASAYSWLVGGNTFAQNGSGGGTVNLGSEKIKHSPYGFLPTGGSFGDSGSPMFIYDAQKQKWLINGVLQTGNPYIGKSNGFQLVRKDWFYDEIFAGDTHSVFYEPHQNGKYFFNDNNNGAGKIDAKHKHYSLPYRLKTRTVQLFNVSLSETAREPVYHAAGGVNSYRPRLNNGENISFIDKGKGELILTSNINQGAGGLYFEGNFTVSPKNNETWQGAGVHISDGSTVTWKVNGVANDRLSKIGKGTLLVQAKGENQGSVSVGDGKVILDQQADDQGKKQAFSEIGLVSGRGTVQLNADNQFNPDKLYFGFRGGRLDLNGHSLSFHRIQNTDEGAMIVNHNQDKESTVTITGNKDITTTGNNNNLDSKKEIAYNGWFGEKDATKTNGGLNLNYPPEEADRTLLLSGGTNLNGNITQTNGKLFFSGRPTPHAYNHLGSGWSKMEGIPQGEIVWDNDWIDRTFKAENFHIQGGQAVVSRNVAKVEGDWHLSNHAQAVFGVAPHQSHTICTRSDWTGLTSCTEKTITDDKVIASLSKTDVRGNVSLADHAHLNLTGLATFNGNLVQAETRTIRLRANATQNGNLSLVGNAQATFNQATLNGNTSASDNASFNLSNNAVQNGSLTLSDNAKANVSHSALNGNVSLADKAVFHFENSRFTGKISGGKDTALHLKDSEWTLPSGTELGNLNLDNATITLNSAYRHDAAGAQTGSAADAPRRRSRRSLLSVTPPTSAESRFNTLTVNGKLNGQGTFRFMSELFGYRSGKLKLAESSEGTYTLAVNNTGNEPVSLEQLTVVEGKDNTPLSENLNFTLQNEHVDAGAWRYQLIRKDGEFRLHNPVKEQELSDKLGKAGETEAALTAKQAQLAAKQQAEKDNAQSLDALIAAGRNATEKAESVAEPARQAGGENAGIMQAEEEKKRVQADKDTALAKQREAETRPATTAFPRARRARRDLPQPQPQPQPQPQRDLISRYANSGLSEFSATLNSVFAVQDELDRVFAEDRRNAVWTSGIRDTKHYRSQDFRAYRQQTDLRQIGMQKNLGSGRVGILFSHNRTGNTFDDGIGNSARLAHGAVFGQYGIGRFDIGISAGAGFSSGSLSDGIRGKIRRRVLHYGIQARYRAGFGGFGIEPHIGATRYFVQKADYRYENVNIATPGLAFNRYRAGIKADYSFKPAQHISITPYLSLSYTDAASGKVRTRVNTAVLAQDFGKTRSAEWGVNAEIKGFTLSLHAAAAKGPQLEAQHSAGIKLGYRW
# B2: OmpA: gonococcal OmpA protein, SEQ ID 2; expressed in E. coli with C-terminal His-tag and purified (protein, listed as Neisseria gonorrhoeae)
# chain: MTFFKPSTVVLTASALALSGCVADPVTGQQSPNKSAMYGLGGAAVCGIVGALTHSGKGARNSALACGAIGAGVGGYMDYQEQRLRQNLAGTQIEIQRQGNQIRLVMPESVTFATGSAALGGSAQYALNTAAQTLVQYPDTTLTINGHTDNTGSDAVNNPLSQHRAQAVAYYLQTRGVAASRLTVYGYGSHMPVASNATVEGRAQNRRVEILINPDQRAVNAARHM
# modifications: C-terminal His-tag
# notes: expressed in E. coli with C-terminal His-tag and purified
# Experiments:
# complement cascade = assay: C3 binding assay; settings: FIG. 10
# [1] = molecular target: T1, C4b binding protein (C4bp); assay: ELISA for the interaction of C4bp with immobilized OmpA; settings: OmpA immobilized from 0.15 mg to 20 mg; 10% NHS as source of C4bp (FIG. 24)
# Protocol: It is known that some antigens contribute to serum resistance by binding to complement regulatory protein C4b binding protein (C4bp), leading to a decrease in serum killing by complement attack. […] In further experiments, purified OmpA and three negative control proteins were immobilized in the wells of a microtiter plate at different concentrations (from 0.15 mg to 20 mg). The wells were blocked with 5% skimmed milk in PBS and then incubated with 10% NHS as source of C4bp.
# [2] = test system: ME-180 human cervical epithelial cells; assay: Immunofluorescence microscopy of purified OmpA binding to epithelial cells; assay type: cell-based; settings: 1 mg/ml purified OmpA vs PBS control (FIG. 19)
# Protocol: Monolayers of the ME-180 cells were treated with PBS (control) or with 1 mg/ml purified OmpA, labeled using polyclonal mouse antiserum against recombinant Ng OmpA-His, followed by anti-mouse Alexa Fluor 488 conjugated antibodies. The results are in FIG. 19.
# [3] = molecular target: T2, C4b binding protein (C4bp); assay: Dot blot ligand overlay analysis of C4bp binding; settings: C4bp 10 mg/ml; OmpA from 0.1 mg to 4 mg (FIG. 23)
Molecule,elicitation of complement-activating antibodies (complement cascade),bound C4bp (ELISA) [1],binding to ME-180 cells [2],C4bp binding (dot blot) [3]
B1,able to elicit antibodies which activate the complement cascade,,,
B2,,bound C4bp was detected,binds,binding
